Patent publication US20090226429A1 (Human Genome Sciences, published 2009)

T1: TR4:Fc receptor (human, UniProt O00220 109-240)
T1 construct: also called TR4-Fc fusion protein; not shown: Fc region
T1 chain: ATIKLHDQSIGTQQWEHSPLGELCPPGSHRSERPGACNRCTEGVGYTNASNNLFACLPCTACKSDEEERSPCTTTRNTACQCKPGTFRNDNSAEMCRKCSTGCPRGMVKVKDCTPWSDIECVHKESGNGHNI

T2: TR5 (human, UniProt O14798 30-242)
T2 construct: Antigen coated in the specificity phage ELISA; also called TRAIL-R3; DcR1
T2 chain: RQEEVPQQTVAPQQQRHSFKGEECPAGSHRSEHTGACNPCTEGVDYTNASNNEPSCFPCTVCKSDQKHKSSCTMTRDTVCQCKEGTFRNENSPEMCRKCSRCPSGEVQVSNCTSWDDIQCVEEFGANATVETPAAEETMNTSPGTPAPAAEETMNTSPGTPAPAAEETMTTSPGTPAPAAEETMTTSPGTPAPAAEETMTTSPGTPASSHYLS

T3: TR10 (human, UniProt Q9UBN6 56-204, limits assumed)
T3 construct: Antigen coated in the specificity phage ELISA; also called TRAIL-R4; DcR2
T3 sequence: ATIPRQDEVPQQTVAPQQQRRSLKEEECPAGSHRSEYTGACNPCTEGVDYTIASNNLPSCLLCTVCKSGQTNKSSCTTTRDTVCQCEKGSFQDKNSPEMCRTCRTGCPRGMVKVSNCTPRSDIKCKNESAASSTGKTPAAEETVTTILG


Legend:
[1] = target: T1, TR4:Fc receptor; experiment: SPR (BIAcore 2000), TR4:Fc amine-coupled on CM5 chip, IgG1 as analyte, double reference subtraction, 1:1 Langmuir fit, 25 C
Description: The optimal pH for this coupling was analyzed using preconcentration experiments ranging from pH 4-7 and was determined to be pH 4.0 for both the TR4 and the TR2 receptor. Amine coupling was used to covalently bind each receptor (fc) to the dextran matrix on the CM5 sensor chip. The immobilization experiment was performed using the manual injection mode. The entire immobilization experiment was performed at 5 μL/min. A 3-minute injection of EDC/NHS (1:1) was applied to each flow cell to active esters. A target level of ˜200RU was set as the goal for all each flow cell. Fc-fusion receptors, TR4 and TR2 at 5 μg/mL, were immobilized onto individual flow cells of a sensor chip. The amount applied varied from 8-14 μL. A 3-minute ethanolamine injection completed the immobilization experiment by inactivating the esters.
The kinetics cycles were performed as follows: The flow rate for the entire cycle was 25 μL/minute with the flow path including both the control (TR2) and experimental (TR4) flow cell at all times. A 1-minute buffer injection was applied to stabilize the baseline. The purified antibody (IgG1 antibody comprising the VH and VL domains of each of the T1014A04, T1014G03, T1014F08, and T14G04 scFvs) was diluted from 10 μg/mL (65 nM) to 0.115 μg/mL (0.75 nM) in running buffer and tested in duplicate. Each concentration was in contact with the control (TR2) and the experimental (TR4) flow cell during a 4-minute association and a 10-minute dissociation phase. Regeneration was performed using 25 mM NaOH from 5-12 μL depending on the sample concentration.
A double-reference subtraction was performed, which refers to the control flow cell subtraction for every cycle, in addition to a buffer cycle subtraction. The 1:1 Langmuir model was used for all evaluation fitting.

[2] = target: T4, TR7 (human, UniProt O14763 52-184, limits assumed); experiment: specificity phage ELISA, antigen coated at 1 ug/ml
T4 construct: Antigen coated in the specificity phage ELISA; also called TRAIL-R2; DR5
Description: (§1) Flexible 96-well plates (Falcon) were coated overnight at 4° C. with each antigen (1 μg/ml). All antigens were coated in PBS. After coating, the solutions were removed from the wells, and the plates were blocked for 1 hour at room temperature in MPBS. The plates were washed 3 times with PBS and then 50 μl of pre-blocked phage was added to each well. The plates were incubated at room temperature for 1 hour and then washed with 3 changes of PBST followed by 3 changes of PBS.
(§2) To each well, 50 μl of an anti-M13-HRP conjugate (Pharmacia) at a 1 in 5000 dilution in MPBS was added and the plates incubated at room temperature for 1 hour. Each plate was washed three times with PBST followed by three times with PBS.
(§3) Fifty μl of TMB substrate was then added to each well, and incubated at room temperature for 30 minutes or until colour development. The reaction was stopped by the addition of 25 μl of 0.5 M H₂SO₄. The signal generated was measured by reading the absorbance at 450 nm (A₄₅₀) using a microtitre plate reader (Bio-Rad 3550).

[3] = target: T2, TR5; experiment: specificity phage ELISA, antigen coated at 1 ug/ml
Description: as §1, §2, §3

[4] = target: T3, TR10; experiment: specificity phage ELISA, antigen coated at 1 ug/ml
Description: as §1, §2, §3

[5] = target: T5, BLyS (human, UniProt Q9Y275 134-285, limits assumed); experiment: specificity phage ELISA, antigen coated at 1 ug/ml
T5 construct: Unrelated control antigen in the specificity phage ELISA
T5 sequence (Q9Y275 134-285 limits assumed): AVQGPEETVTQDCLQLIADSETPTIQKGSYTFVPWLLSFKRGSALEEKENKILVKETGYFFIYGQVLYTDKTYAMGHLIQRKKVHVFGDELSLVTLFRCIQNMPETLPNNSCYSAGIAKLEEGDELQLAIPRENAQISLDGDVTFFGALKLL
Description: as §1, §2, §3

Binder	Kd [1] [pM]	binding result [2]	binding result [3]	binding result [4]	binding result [5]
IgG1 antibody comprising the VH and VL domains of the T1014G03 scFv (antibody, V domains shown, Whole IgG1) VH: EVQLVQSGAEVKMPGASVKLSCRVSGDTFTAYFIHWVRQAPGQGLEWMGWFNPISGTAGSAEKFRGRVAMTRDTSISTAYMELNRLTFDDTAVYYCARQHRGNTFDPWGQGTLVTVSS VL: QSALTQPASVSGSPGQSITISCTGTSSDIGAYKYVSWYQQHPGKAPKLVIYEVSNRPSGVSSRFSGSKSGQTASLTISGLQADDEADYYCNSYQGYNTWVFGGGTKVTVLG	554	–	–	–	–
scFv T1014A04 (scFv) scFv: EVQLVQSGADVKRPGASVKVSCKISGDSFNAYFIHWVRQAPGQGLEWMGWFNPDSGTADSAQKFHGRVTMTRDTSSSTAFLELSRLRSDDTAVYYCVRQHRGNTFAPWGRGTMVTVSSGGGGSGGGGSGGGGSAQSVLTQPPSASGSPGQSVTISCTGTTSDVGGYNYVSWYQQHPGKAPKLMIYGVNQRPSGVPDRFSGSKSGNTASLTVSGLQAEDEADYYCSSYAGSNNWVFGGGTKLTVLG	–	no binding	no binding	no binding	no binding
scFv T1014G04 (scFv) scFv: EVQLVQSGADVKRPGASVKVSCKISGDSFTAYFIHWVRQAPGQGLEWMGWFNPDSGTADSAQKFHGRVTMTRDTSSSTAFLELSRLRSDDTAVYYCVRQHRGNTFAPWGRGTLVTVSSGGGGSGGGGSGGGGSAQPVLTQPPSASGSPGQSVTISCTGTSSDVGSYEYVSWYQQHPGKAPRLMISEVNKRPSGVPNRFSGSKSGNTASLTVSGLQADDEADYYCSSYAGSNNWVFGGGTKVTVLG	–	no binding	no binding	no binding	no binding
scFv T1014F08 (scFv) scFv: EVQLVQSGAEVKKPGASVKLSCRVSGDTFTAYFIHWVRQAPGQGPEWMGWFNPISGTAGSAARFRGRVAMTRDTSISTAYMELNRLTFDDTAVYYCARQHRGNTFDPWGKGTLVTVSSGGGGSGGGGSGGGGSALPVLTQPPSASGSPGQSVTISCTGTSSDVGGYKYVSWYQQHPGKAPKLMIYEVSMRPSGVPDRFSGSKSGNTASLTVSGLQAEDEADYYCASYAGSNNWVFGGGTKLTVLG	–	no binding	no binding	no binding	no binding
scFv T1014B11 (scFv) scFv: EVQLVQSGAEVKKPGASVKVSCKISGDSFTAYFIHWLRQAPGEGLEWMGWFNPISGTAGSPQKFHGRVAMTRDTSISTAYMELTRLASDDTAIYYCARQHHSNTFDPWGQGTLVTVSSGGGGSGGGGSGGGGSAQSALTQPASVSGSPGQSITISCTGTNSDVGGYNYVSWYQQHPGKAPKLMIYEVNNRPSGVSNRFSGSKSGNTASLTISGLQADDEADYYCSSYTTSNTWVFGGGTKLTVLG	–	no binding	no binding	no binding	no binding
scFv T1014G03 (scFv) scFv: EVQLVQSGAEVKMPGASVKLSCRVSGDTFTAYFIHWVRQAPGQGLEWMGWFNPISGTAGSAEKFRGRVAMTRDTSISTAYMELNRLTFDDTAVYYCARQHRGNTFDPWGQGTLVTVSSGGGGSGGGGSGGGGSAQSALTQPASVSGSPGQSITISCTGTSSDIGAYKYVSWYQQHPGKAPKLVIYEVSNRPSGVSSRFSGSKSGQTASLTISGLQADDEADYYCNSYQGYNTWVFGGGTKVTVLG	–	no binding	no binding	no binding	no binding
IgG1 antibody comprising the VH and VL domains of the T1014A04 scFv (antibody, V domains shown, Whole IgG1; also called IgG1 format of T1014A04) VH: EVQLVQSGADVKRPGASVKVSCKISGDSFNAYFIHWVRQAPGQGLEWMGWFNPDSGTADSAQKFHGRVTMTRDTSSSTAFLELSRLRSDDTAVYYCVRQHRGNTFAPWGRGTMVTVSS VL: QSVLTQPPSASGSPGQSVTISCTGTTSDVGGYNYVSWYQQHPGKAPKLMIYGVNQRPSGVPDRFSGSKSGNTASLTVSGLQAEDEADYYCSSYAGSNNWVFGGGTKLTVLG	468	–	–	–	–
IgG1 antibody comprising the VH and VL domains of the T1014G04 scFv (antibody, V domains shown, Whole IgG1; also called T14G04) VH: EVQLVQSGADVKRPGASVKVSCKISGDSFTAYFIHWVRQAPGQGLEWMGWFNPDSGTADSAQKFHGRVTMTRDTSSSTAFLELSRLRSDDTAVYYCVRQHRGNTFAPWGRGTLVTVSS VL: QPVLTQPPSASGSPGQSVTISCTGTSSDVGSYEYVSWYQQHPGKAPRLMISEVNKRPSGVPNRFSGSKSGNTASLTVSGLQADDEADYYCSSYAGSNNWVFGGGTKVTVLG	194	–	–	–	–
